Laboratory results taken from PMC8373123.

Target: human NPC1L1 (Niemann-Pick C1-like 1), wild type, C-terminal Flag tag (human) (UniProt Q9UHC9)
Assay: cryo-EM structure

- stoichiometry N: 2
Substance: human NPC1L1 (Niemann-Pick C1-like 1), wild type, C-terminal Flag tag (from UniProt Q9UHC9-2 22-1332) (natural protein)
